Publication PMC10976474

What was measured:
[1] = molecular target: T1, MBP-PhoB (Synechococcus sp. WH7803) (UniProt A0ACE0B1Y2); assay: competition; conditions: 10 mM Tris-HCl pH 8, 50 mM KCl, 2 mM MgCl2, 5% glycerol, 0.05 mg/mL BSA, 1 mM DTT, 3 mM spermidine (described as 2x binding buffer); 25 ng DNA, 30 min at 23 C …
T1 sequence: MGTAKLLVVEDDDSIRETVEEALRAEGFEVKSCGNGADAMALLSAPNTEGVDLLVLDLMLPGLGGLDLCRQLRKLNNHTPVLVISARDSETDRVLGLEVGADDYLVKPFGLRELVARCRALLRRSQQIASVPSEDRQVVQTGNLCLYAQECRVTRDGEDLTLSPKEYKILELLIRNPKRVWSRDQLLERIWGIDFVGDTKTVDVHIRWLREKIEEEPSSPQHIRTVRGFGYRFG

[2] = molecular target: T1, MBP-PhoB (Synechococcus sp. WH7803); assay: EMSA; conditions: 10 mM Tris-HCl pH 8, 50 mM KCl, 2 mM MgCl2, 5% glycerol, 0.05 mg/mL BSA, 1 mM DTT, 3 mM spermidine (described as 2x binding buffer); 25 ng DNA, 30 min at 23 C …

Sequence | binding [1] | binding [2]
TACACTATCTAGGAAACTCATAAATTACCTCTTAGAAAAAACTTAATAGAGAAACTTTTTTCTCATAATCCCAACCAATACATTCTAGCACATTTTTCAATGGTTCCAAGAAAGACTTCTCAAACTGAGTCTGATAGTCAATATACTTATCAACGTTAAACTCCTTGGGAATGTCACTGAAGAATGATATGCAGTTCTCCTGAATTGGGTTTGGTGTTCTCAAG (double strand) [S-PM2d134 (uvsX) promoter] | binds | binds
CAGCAAGAGCGACTTCAATTTCGAAGTTATTATTGTCATGTTTGATTAAATTGTAGGGCGGGTAATTTTTATTGTGATGTGTCATCGAATCCAATCGATGAAATACATCATCCAGACCTACAAAGTGGGGGGAGTAAATATCCCAAGTGAATTTAGTCATTGCTTTCTCCTTTATTTAAGCGAGTTTGAATTAGGATCTCA (double strand) [S-PM2d130 (hsp20) promoter] |  | no binding
TACACTATCTAGGAAACTCATAAATTACCTCTTAGAAAAAACTTAATAGAGAAACTTTTTTCTCATAATCCCAACCAATACATTCTAGCACATTTTTCAATGGTTCCAAGAAAGACTTCTCAAACTGAGTCTGATAGTCAATATACTTATCAACGTTAAACTCCTTGGGAATGTCACTGAAGAATGATATGCAGTTCTCCTGAATTGGGTTTGGTGTTCTCAAG (double strand) [FAM-S-PM2d134 promoter] |  | binds
GTAACTTCCGACACAAATTCTTGATAGCGTTCAAAGTTTACTTTAGACATATTAGATAATAAAAGAACTGAATTTGTCAATTCGCTTTTGGCGAGTTGAAAGGTCTTCAAAAGAATCCGCTAGATCTTCCTGTTCGACAAGAGCATCAGCAGATGTCTCATCATCAACATTATACAGCTTCATCTTTGCTCTGTCAATACCAACTGTAAAACGGCGATGCATCGTAGGATCATTATATCGATTCTTCAATTGCTTCACCATAATACGACTGGATTGTTCT (double strand) [S-PM2d136 (mazG) promoter] | no binding | no binding
AGGGGTACTGGATCATTTCTGAAGTTGAAGAAATTGATGGTTTGGAGTTTGGGGACCCCGATTGTATGTTAAAATATCCATATGCAGTTGAACAAGGGGTCCTCGTCCCATGGCCACCATATTCAACAGAAAAAAAGATCATTGTAAGATCTTCCGAGATCAGTGTCATGGTTGATCCAGATGCTCCTCGCCTTGCAGATTATGCCAAATTGAAATCAGAAGAGACCTAATGAAATTTTACACCAGCGTACAACAAGCAGGTA (double strand) [S-PM2d133 (gp43) promoter (full-length fragment)] |  | binds
AGTTCTTCCCGAGGATTTGTTCGATGAATTCTGAACCAGTAACATCACTTTATCTCTCATTTAACCAAATCAAGTATATTCTTGATGTTATGTGGGGAACCGATCCAGTTACAGCAAAACTATTTGCAAACTCTCACGGAGTTGATGATACCGAACTGGAACGTTATCTTTCCTCTCGTTTAACTGATGGTGATATAACTAAAGTAGATTATACAATTCTTGGAGAAAAATGATTAATGTCAAACAAGAAGATAACGGCAGCTTCAC (double strand) [FAM-S-PM2d004 promoter] |  | binds
AGTTCTTCCCGAGGATTTGTTCGATGAATTCTGAACCAGTAACATCACTTTATCTCTCATTTAACCAAATCAAGTATATTCTTGATGTTATGTGGGGAACCGATCCAGTTACAGCAAAACTATTTGCAAACTCTCACGGAGTTGATGATACCGAACTGGAACGTTATCTTTCCTCTCGTTTAACTGATGGTGATATAACTAAAGTAGATTATACAATTCTTGGAGAAAAATGATTAATGTCAAACAAGAAGATAACGGCAGCTTCAC (double strand) [S-PM2d004 promoter (full-length fragment)] | binds | binds
